The values that follow come from article PMC12736101.

This data set in a line: SEC; Superdex 200 10/300 GL, phosphate-buffered saline, 0.5 mL/min, ambient temperature, UV 280 nm; the SEC 'monomer' peak is the native covalent dimer. Background: Size exclusion chromatography separates by hydrodynamic size, large species first.

Chain of dulaglutide, original reference drug (Trulicity) (chain): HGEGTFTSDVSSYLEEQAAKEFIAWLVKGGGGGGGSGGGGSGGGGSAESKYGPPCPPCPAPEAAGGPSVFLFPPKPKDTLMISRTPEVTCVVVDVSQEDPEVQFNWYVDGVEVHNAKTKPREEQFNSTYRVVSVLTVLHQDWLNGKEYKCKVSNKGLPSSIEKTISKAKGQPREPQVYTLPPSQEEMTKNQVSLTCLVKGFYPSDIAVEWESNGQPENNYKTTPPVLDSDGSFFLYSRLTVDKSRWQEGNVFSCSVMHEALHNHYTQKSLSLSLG

“dulaglutide, original reference drug (Trulicity)”: the “percent in the SEC 'monomer' peak (the native covalent dimer)” value is reported as 97.5% monomeric form in the Trulicity sample.
